In patent US11994512B2, “Single-cell genomic methods to generate ex vivo cell systems that recapitulate in vivo biology with improved fidelity” (Massachusetts Institute of Technology, priority 2018, dated 2024):

B1: P50543 (protein, UniProt P50543 1-98, looked up)
chain: MPTETERCIESLIAVFQKYSGKDGNNTQLSKTEFLSFMNTELAAFTKNQKDPGVLDRMMKKLDLNCDGQLDFQEFLNLIGGLAIACHDSFIQTSQKRI
modifications: full-length
B2: P50431 (protein, UniProt P50431 1-478, looked up)
chain: MADRDATLWASHEKMLSQPLKDSDAEVYSIIKKESNRQRVGLELIASENFASRAVLEALGSCLNNKYSEGYPGQRYYGGTEFIDELEMLCQKRALQAYHLDPQCWGVNVQPYSGSPANFAVYTALVEPHGRIMGLDLPDGGHLTHGFMTDKKKISATSIFFESMPYKVYPETGYINYDQLEENASLFHPKLIIAGTSCYSRNLDYARLRKIADDNGAYLMADMAHISGLVAAGVVPSPFEHCHVVTTTTHKTLRGCRAGMIFYRKGVRSVDPKTGKETYYELESLINSAVFPGLQGGPHNHAIAGVAVALKQAMTTEFKIYQLQVLANCRALSDALTELGYKIVTGGSDNHLILMDLRSKGTDGGRAEKVLEACSIACNKNTCPGDKSALRPSGLRLGTPALTSRGLLEEDFQKVAHFIHRGIELTLQIQSHMATKATLKEFKEKLAGDEKIQSAVATLREEVENFASNFSLPGLPDF
modifications: full-length
B3: P48281 (protein, UniProt P48281 1-422, looked up)
chain: MEAMAASTSLPDPGDFDRNVPRICGVCGDRATGFHFNAMTCEGCKGFFRRSMKRKALFTCPFNGDCRITKDNRRHCQACRLKRCVDIGMMKEFILTDEEVQRKREMIMKRKEEEALKDSLRPKLSEEQQHIIAILLDAHHKTYDPTYADFRDFRPPIRADVSTGSYSPRPTLSFSGDSSSNSDLYTPSLDMMEPASFSTMDLNEEGSDDPSVTLDLSPLSMLPHLADLVSYSIQKVIGFAKMIPGFRDLTSDDQIVLLKSSAIEVIMLRSNQSFTLDDMSWDCGSQDYKYDITDVSRAGHTLELIEPLIKFQVGLKKLNLHEEEHVLLMAICIVSPDRPGVQDAKLVEAIQDRLSNTLQTYIRCRHPPPGSHQLYAKMIQKLADLRSLNEEHSKQYRSLSFQPENSMKLTPLVLEVFGNEIS
modifications: full-length
B4: P55050 (protein, UniProt P55050 1-132, looked up)
chain: MAFDGTWKVDRNENYEKFMEKMGINVMKRKLGAHDNLKLTITQDGNKFTVKESSNFRNIDVVFELGVNFPYSLADGTELTGAWTIEGNKLIGKFTRVDNGKELIAVREVSGNELIQTYTYEGVEAKRFFKKE
modifications: full-length
B5: P52800 (protein, UniProt P52800 1-336, looked up)
chain: MAMARSRRDSVWKYCWGLLMVLCRTAISRSIVLEPIYWNSSNSKFLPGQGLVLYPQIGDKLDIICPKVDSKTVGQYEYYKVYMVDKDQADRCTIKKENTPLLNCARPDQDVKFTIKFQEFSPNLWGLEFQKNKDYYIISTSNGSLEGLDNQEGGVCQTRAMKILMKVGQDASSAGSARNHGPTRRPELEAGTNGRSSTTSPFVKPNPGSSTDGNSAGHSGNNLLGSEVALFAGIASGCIIFIVIIITLVVLLLKYRRRHRKHSPQHTTTLSLSTLATPKRGGNNNGSEPSDVIIPLRTADSVFCPHYEKVSGDYGHPVYIVQEMPPQSPANIYYKV
modifications: full-length
B6: P51432 (protein, UniProt P51432 1-1234, looked up)
chain: MAGARPGVHALQLEPPTVVETLRRGSKFIKWDEEASSRNLVTLRVDPNGFFLYWTGPNMEVDTLDISSIRDTRTGRYARLPKDPKIREVLGFGGPDTRLEEKLMTVVAGPDPVNTTFLNFMAVQDDTVKVWSEELFKLAMNILAQNASRNTFLRKAYTKLKLQVNQDGRIPVKNILKMFSADKKRVETALESCGLNFNRSESIRPDEFPLEIFERFLNKLCLRPDIDKILLEIGAKGKPYLTLEQLMDFINQKQRDPRLNEVLYPPLRSSQARLLIEKYETNKQFLERDQMSMEGFSRYLGGEENGILPLEALDLSMDMTQPLSAYFINSSHNTYLTAGQLAGPSSVEMYRQALLWGCRCVELDVWKGRPPEEEPFITHGFTMTTEVPLRDVLEAIAEAAFKTSPYPVILSFENHVDSAKQQAKMAEYCRSIFGDALLIDPLDKYPLSAGIPLPSPQDLMGRILVKNKKRHRPSTGVPDSSVRKRPLEQSNSALSESSAATEPSSPQLGSPSSDSCPGLSNGEEVGLEKTSLEPQKSLGEESLSREPNVPMPDRDREDEEEDEEEEETTDPKKPTTDEGTASSEVNATEEMSTLVNYVEPVKFKSFEAARKRNKCFEMSSFVETKAMEQLTKSPMEFVEYNKQQLSRIYPKGTRVDSSNYMPQLFWNVGCQLVALNFQTLDLPMQLNAGVFEYNGRSGYLLKPEFMRRPDKSFDPFTEVIVDGIVANALRVKVISGQFLSDKKVGIYVEVDMFGLPVDTRRKYRTRTSQGNSFNPVWDEEPFDFPKVVLPTLASLRIAAFEEGGKFVGHRILPVSAIRSGYHYVCLRNEANQPLCLPALLIYTEASDYIPDDHQDYAEALINPIKHVSLMDQRAKQLAALIGESEAQASTETYQETPCQQPGSQLPSNPTPNPLDASPRWPPGPTTSSTSSSLSSPGQRDDLIASILSEVTPTPLEELRSHKAMVKLRSRQDRDLRELHKKHQRKAVALTRRLLDGLAQARAEGKCRPSPSALGKATNSEDVKEEEEAKQYREFQNRQVQSLLELREAQADVETKRKLEHLRQAHQRLKEVVLDTHTTQFKRLKELNEREKKELQKILDRKRNNSISEAKTREKHKKEVELTEINRRHITESVNSIRRLEEAQKQRHERLVAGQQQVLQQLEEEEPKLLAQLTQECQEQRERLPQEIRRCLLGETAEGLGDGPLVACASNGHAPGSGGHLSSADSESQEENTQL
modifications: full-length
B7: P52792 (protein, UniProt P52792 1-465, looked up)
chain: MLDDRARMEATKKEKVEQILAEFQLQEEDLKKVMSRMQKEMDRGLKLETHQEASVKMLPTYVRSTPEGSEVGDFLSLDLGGTNFRVMLVKVGEGEAGQWSVKTKHQMYSIPEDAMTGTAEMLFDYISECISDFLDKHQMKHKKLPLGFTFSFPVRHEDIDKGILLNWTKGFKASGAEGNNIVGLLRDAIKRRGDFEMDVVAMVNDTVATMISCYYEDRQCEVGMIVGTGCNACYMEEMQNVELVEGDEGRMCVNTEWGAFGNSGELDEFLLEYDRMVDESSVNPGQQLYEKIIGGKYMGELVRLVLLKLVEENLLFHGEASEQLRTRGAFETRFVSQVESDSGDRRQILNILSTLGLRPSVADCDIVRRACESVSTRAAHMCSAGLAGVINRMRESRSEDVMRITVGVDGSVYKLHPSFKERFHASVRRLTPNCEITFIESEEGSGRGAALVSAVACKKACMLGQ
modifications: full-length
B8: P48756 (protein, UniProt P48756 1-144, looked up)
chain: MVALKTCSLLLVLLFLAVGLGEKEEVEFRSHAKFAGPRPRGPRYAEGTFISDYSIAMDKIRQQDFVNWLLAQRGKKSDWKHNITQREARALVLAGQSQGKEDKEAQESSLPKSLSDDDVLRDLLIQELLAWMVDQTELCRLRSQ
modifications: full-length
B9: P51162 (protein, UniProt P51162 1-128, looked up)
chain: MAFSGKYEFESEKNYDEFMKRLGLPGDVIERGRNFKIITEVQQDGQDFTWSQSYSGGNIMSNKFTIGKECEMQTMGGKKFKATVKMEGGKVVAEFPNYHQTSEVVGDKLVEISTIGDVTYERVSKRLA
modifications: full-length
B10: P48036 (protein, UniProt P48036 1-319, looked up)
chain: MATRGTVTDFPGFDGRADAEVLRKAMKGLGTDEDSILNLLTSRSNAQRQEIAQEFKTLFGRDLVDDLKSELTGKFEKLIVAMMKPSRLYDAYELKHALKGAGTDEKVLTEIIASRTPEELSAIKQVYEEEYGSNLEDDVVGDTSGYYQRMLVVLLQANRDPDTAIDDAQVELDAQALFQAGELKWGTDEEKFITIFGTRSVSHLRRVFDKYMTISGFQIEETIDRETSGNLEQLLLAVVKSIRSIPAYLAETLYYAMKGAGTDDHTLIRVVVSRSEIDLFNIRKEFRKNFATSLYSMIKGDTSGDYKKALLLLCGGEDD
modifications: full-length

Test system: intracellular proteome of ENR+CD and ENR organoids
Assay: LC-MS/MS TMT proteomics of ENR+CD versus ENR organoids
Format: cell-based, C57BL/6 mice
Details: for Average logFC / M1-1 Log2 Median Normalized / M1-2 Log2 Median Normalized / M2-1 Log2 Median Normalized / M2-2 Log2 Median Normalized: protein abundance, ENR+CD versus ENR organoids; for Average logFC: aggregate of the four sample pairs; for M1-1 Log2 Median Normalized: replicate M1-1; for M1-1 Log2 Median Normalized / M1-2 Log2 Median Normalized / M2-1 Log2 Median Normalized / M2-2 Log2 Median Normalized: log2 ratio; for M1-2 Log2 Median Normalized: replicate M1-2; for M2-1 Log2 Median Normalized: replicate M2-1; for M2-2 Log2 Median Normalized: replicate M2-2; for change: up = enriched in ENR+CD, down = enriched in ENR, FDR<0.05 and log fold change cut-off

Molecule	Average logFC	M1-1 Log2 Median Normalized	M1-2 Log2 Median Normalized	M2-1 Log2 Median Normalized	M2-2 Log2 Median Normalized	change
B1	1.372	1.371	1.475	1.4645	0.855	up
B2	−1.162	−1.382	−1	−1.1875	−1.08	down
B3	−1.442	−1.589	−1.441	−1.0795	−1.499	down
B4	−1.721	−1.558	−2.656	−2.1955	−0.474	down
B5	−1.24	−0.883	−1.258	−1.7545	−1.065	down
B6	−1.187	−1.261	−1.255	−1.1345	−1.096	down
B7	1.166	1.847	0.711	1.3025	0.805	up
B8	1.212	1.21	0.504	1.2845	1.769	up
B9	−1.573	−0.519	−1.799	−2.7635	−1.209	down
B10	1.143	1.196	1.332	1.1055	0.94	up
